Consider five molecules from article PMC7924340 (Toxins, 2021).

Test in all cases: radioligand binding
Experiment [1] concerns the target Acetylcholine binding protein from Aplysia californica (Aplysia californica).
Another experiment addresses human α7 nAChR (human) (UniProt P36544).
Experiment [2] has as its target Muscle-type nAChR from the electric organs of Torpedo californica (Torpedo californica (endogenous in electric organ)).
Experiment [3] concerns the target Acetylcholine binding protein from Lymnaea stagnalis (Lymnaea stagnalis) (UniProt P58154).
Experiment [4] deals with T1, Acetylcholine binding protein from Lymnaea stagnalis (Lymnaea stagnalis, UniProt P58154 20-229).
T1 construct: also called AChBP L. stagnalis; L. stagnalis AChBP
As to conditions: both partners purified.

The next experiment addresses T2, human α7 nAChR (human, UniProt P36544 23-502).
T2 construct: also called hα7 nAChR
As to conditions: one partner purified.

T2 sequence (P36544 23-502): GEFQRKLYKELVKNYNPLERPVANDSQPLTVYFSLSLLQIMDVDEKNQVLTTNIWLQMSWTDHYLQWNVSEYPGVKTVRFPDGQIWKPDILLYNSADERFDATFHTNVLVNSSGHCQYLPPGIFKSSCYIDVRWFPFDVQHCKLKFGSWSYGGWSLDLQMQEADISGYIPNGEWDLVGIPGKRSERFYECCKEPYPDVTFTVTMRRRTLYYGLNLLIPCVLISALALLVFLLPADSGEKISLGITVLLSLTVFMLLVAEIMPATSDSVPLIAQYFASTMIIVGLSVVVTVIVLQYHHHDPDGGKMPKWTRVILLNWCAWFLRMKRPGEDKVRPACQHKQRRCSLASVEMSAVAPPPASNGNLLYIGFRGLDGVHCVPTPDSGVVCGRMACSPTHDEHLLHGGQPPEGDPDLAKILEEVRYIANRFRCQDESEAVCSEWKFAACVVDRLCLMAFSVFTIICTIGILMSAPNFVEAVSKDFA

For orientation: IC50 means the concentration at which inhibition is half-maximal. A higher IC50 goes with a need for much substance. For “α-bungarotoxin from krait Bungarus multicinctus venom (from UniProt P60615 22-95) (natural protein)”, the IC50 in experiment [1] was found to be 155 nM.

Regarding “Tx-NM3-1 (from UniProt P01388 1-71) (natural protein)”, the IC50 with human α7 nAChR (human) worked out at 4.84 nM; in experiment [2], 1.61 nM; in experiment [1], 3200 nM; in experiment [3], 203 nM.

B1: α-bungarotoxin from krait Bungarus multicinctus venom (natural protein)
chain: IVCHTTATSPISAVTCPPGENLCYRKMWCDAFCSSRGKVVELGCAATCPSKKPYEEVTCCSTDKCNPHPKQRPG
B1 had an IC50 in experiment [4] of 17.2 ± 0.7 nM.

B2: Long type neurotoxin I from cobra N. oxiana (natural protein)
chain: ITCYKTPIPITSETCAPGQNLCYTKTWCDAWCGSRGKVIELGCAATCPTVESYQDIKCCSTDDCNPHPKQKRP
As to B2, the values for the half-maximal inhibitory concentration (IC50) in experiment [4] and in experiment [1] were 73.4 ± 1.3 nM and 1200 nM, respectively.

B3: Tx-NM4 (natural protein)
chain: IRCFITPDVTSQICADGHVCYTKTWCDNFCASRGKRVDLGCAATCPTVKPGVNIKCCSTDNCNPFPTRNRP
B3: the IC50 is 1160 ± 40 nM in experiment [4], 2.17 nM in experiment [2], 2350 nM in experiment [1] and 26.9 nM with human α7 nAChR.
